Consider one molecule from US20230322857A1, “RECOMBINANTLY ENGINEERED POLYPEPTIDES CAPABLE OF RECYCLING NONCANONICAL COFACTORS” (The Regents of the University of California, priority 2022, published 2023).

A short description of data set [1]: BNA(H)-mediated PTDH biotransformation with TsOYE. It is filed as biochemical. How it is done:
BNA(H)-Mediated PTDH Biotransformation. Reactions with BNA^+, see FIG. 10D, contained 100 mM MOPS-NaOH at pH 7.6, 10 mM KIP, 100 mM sodium phosphite, and 2% v/v DMSO. BNA^+Cl^−, prepared by refluxing equimolar amounts of nicotinamide and benzyl chloride in acetonitrile overnight, followed by precipitation with diethyl ether on ice was supplied to the reactions at final concentrations of 0, 5, 10, or 20 mM. Reactions were initiated by spiking TsOYE and the appropriate TS-PTDH variant to a final concentration of 10 μM, each. Reaction mixtures were incubated at 30° C. on a Thermomixer C (Eppendorf) with shaking at 900 rpm for 24 h, extracted with 500 μL ethyl acetate containing 5 mM n-dodecane, and analyzed by GC-FID. The cycling system with no BNA was used to determine the background activity of the cycling systems. This value was subtracted from the final levodione concentrations in the 5-, 10-, and 20-mM samples to determine the BNA(H)^− specific levodione production. Concentrations of levodione product were determined using a calibration line (0-10 mM, 6 levels, using n-dodecane as internal standard). The y-intercept of the calibration line was forced through 0.
For BNA(H)-mediated reactions, gas chromatography analyses were performed on a GC-2010 (Shimadzu, Japan) equipped with an AOC-20i auto injector and a flame ionization detector (FID), using a CP-Sil 5 column (25 m×0.25 mm×[…]). 1 μL of sample was injected with a split ratio of 100:1 and injector at 340° C. The FID was maintained at 360° C. Nitrogen was used as the carrier gas, with a linear velocity of 30 cm/s. The oven was held at 135° C. for 1 min, ramped at 15° C./min to 215° C., then 30° C./min to 345° C., and held at 345° C. for 1 min.
Expression and Purification of Proteins for BNA(H)-Mediated Biotransformation Reactions. E. coli BL21(DE3) strains were transformed with the plasmids containing the TS-PTDH variants and grown on LB-agar plates containing ampicillin at 37° C. overnight. An overnight culture, 15 mL LB supplemented with ampicillin, was inoculated with a single colony, and grown at 37° C., 170 rpm overnight. 2 L baffled shake-flasks with 250 mL of 2×YT media containing 200 μg/mL ampicillin, were inoculated with the overnight culture, grown at 37° C., 170 rpm until OD600 of ˜1.0, induced with IPTG (0.5 mM), and grown at 30° C. and 170 rpm for 24 h. Cells were harvested by centrifugation at 18,000×g, 4° C., 10 min and stored at −20° C. until purification.
The pellet was resuspended in four volumes loading buffer (50 mM sodium phosphate, 300 mM sodium chloride, 10 mM imidazole, pH 7.7), and lysed on ice by sonication (Branson sonifier 250; 15 min total, 40% duty cycle, output control 3.5, 2 mm tip). The lysate was clarified (21,000×g, 4° C., 30 min followed by 0.2 μm filtration), and loaded (1 mL/min) onto a Nickel-HisTrap FF crude (1 mL) column, washed with loading buffer (12 column volumes, CV), followed by a step with 10% elution buffer (loading buffer containing 250 mM imidazole; 12 CV). The protein was then eluted with 100% elution buffer and collected in fractions of 0.5 mL. Fractions containing protein were combined and dialyzed against ice-cold dialysis buffer (50 mM sodium phosphate, pH 7.7, 800 mL); the buffer was renewed after the first 2 h of dialysis. Following the dialysis, the protein was mixed with glycerol (20% v/v final concentration). Enzyme concentrations were estimated by the absorbance at 280 nm (non-denatured protein), using predicted extinction coefficients (wild type and LY-13: 26470, LY-7: […]; web.expasy.org/protparam/). The protein was aliquoted, flash frozen in liquid nitrogen, and stored at −80° C. until use. […]

Another data set concerns E. coli SHuffle strain. Nature of the data set: Recapitulation of growth restoration with TS-PTDH variants in SHuffle strain. It is filed as cell-based, Escherichia coli. Conditions: spotted onto agar selection plates. How it is done:
Selection of TS-PTDH Library. A total of 50 μL pre-made SHuffle/pLZ311 or SHuffle/pLZ312 electro-competent cells were transformed with 2 μL TS-PTDH A155N-E175-A176-L208 NNK library DNA (pLZ316) via electroporation as described above. After rescue in SOC media for 1 h, cultures were combined in 10 mL 2×YT with 10 g/L glucose, 0.5% arabinose, kanamycin and ampicillin. 0.2, or 1 μL of culture was immediately taken from the culture and plated on an 2×YT agar plates with kanamycin and ampicillin. The plate was incubated at 37° C. overnight, and the number of colonies formed was counted to estimate the library size. The liquid cultures were incubated at 37° C. with shaking for 10 h. Cells (1 mL) were washed 3 times and re-suspended in M9 Buffer. Targeted serial dilutions of cells were prepared in M9 buffer and 5 μL aliquots were dispensed in series on an agar plate of M9 selection media containing 0.5 mM diamide, 5 or 1 g/L yeast extract, 10 g/L glucose, 0.5% arabinose, 0.5 mM IPTG, 10 g/L sodium phosphite, kanamycin, ampicillin, and 5 mM NMN^+. Selection plates were incubated at 37° C., and photographs were taken to document growth progress. The independent transformants sampled was calculated as 2.4×10^6 and 2.5×10^6 colonies when plated on 5 and 1 g/L yeast extract, respectively. TS-PTDH and the template of the library, TS-PTDH A155N, were cultured in the same conditions as controls. The colonies were numbered by the order of appearance. The selected cells were re-streaked on fresh agar plate with identical media and incubated until single colonies formed on the plate. Variants that cannot forma single colony may be false positives. After extracting the plasmids from each re-streaked colony, the chosen TS-PTDH variants were amplified and moved into the pQElac vector containing a N-terminal 6×His tag for protein purification and characterization. […] 2 μL of a serial dilution of cells were deposited onto a growth selection plate and grown at 37° C.

Data set [2] is described as follows: Steady-state kinetics of TS-PTDH variants with NADP^+. Type of data set: biochemical. The note with it: 100 mM MOPS, pH 7.25, 10 mM sodium phosphite, varied cofactor concentrations; n = 3. The protocol:
Purification and Characterization of TS-PTDH Variants. The E. coli BL21(DE3) strains harboring pQElac plasmids encoding the TS-PTDH or TS-PTDH variants were grown in 2×YT media with kanamycin and ampicillin at 37° C. The IPTG-inducible expression, Ni-affinity purification, and protein concentration determination was conducted as described above.
The steady-state kinetic parameters toward the coenzymes were measured by spiking purified protein into a 100 μL reaction mixture containing 100 mM MOPS, pH 7.25, 10 mM sodium Pt, and varied cofactor concentrations from 0.02 mM to 5 mM at 25° C. The kinetic parameters were measured by monitoring the […] of reduced coenzyme at 340 nm. Data were fitted to the Michaelis-Menten equation to generate estimates of KM and kcat values.

B1: LY-13: phosphite dehydrogenase variant with A155N, E175A, A176F (SEQ ID NO: 6) (protein)
chain: MLPKLVITHRVHEEILQLLAPHCELITNQTDSTLTREEILRRCRDAQAMMAFMPDRVDADFLQACPELRVIGCALKGFDNFDVDACTARGVWLTFVPDLLTVPTAELAIGLAVGLGRHLRAADAFVRSGKFRGWQPRFYGTGLDNATVGFLGMGNIGLAMADRLQGWGATLQYHAFKALDTQTEQRLGLRQVACSELFASSDFILLALPLNADTLHLVNAELLALVRPGALLVNPCRGSVVDEAAVLAALERGQLGGYAADVFEMEDWARADRPQQIDPALLAHPNTLFTPHIGSAVRAVRLEIERCAAQNILQALAGERPINAVNRLPKANPAAD
In the case of B1, the “activity / cycling with BNA^+ compared to wild type” value in data set [1] is “enhanced activity for BNA^+ reduction”. In addition, in data set [1] (0, 5, 10, or 20 mM BNA^+), the “response of biotransformation efficiency to BNA^+ concentration” value is reported as “cofactor dose-dependent response”. Moreover, in data set [1] (20 mM BNA^+ supplementation, TsOYE, 24 h), the “utilization of the BNA^+ pool relative to the wild type protein” value is “improved utilization of the BNA^+ pool”. Moreover, the “growth restoration, co-expression with NMNH-specific Gor Ortho” value in the data set on E. coli SHuffle strain is recorded as “markedly improved growth restoration”. Moreover, the “growth restoration, co-expression with NMNH-specific Gor Ortho” value in the data set with E. coli SHuffle strain (listed as TS-PTDH LY-13) was “improved growth compared to TS-PTDH A155N”. In data set [2], the Michaelis constant (Km) (usually the substrate concentration at which the rate is half of its maximum) was 50 ± 10 µM and the “NADP^+ kcat” value is 0.96 ± 0.02 s⁻¹.
